Reference: patent US20240279281A1, “Peptide Inhibitors of Interleukin-23 Receptor” (Janssen Pharmaceutica NV, priority 2023, published 2024)
Starred links: 1 amine or outer side, 2 acyl side, 3 side chain; linkers in the order of their positions; H or OH if unused. Positions of bridges follow the written chain, without caps; N, C: chain ends. Non-standard residues stand in square brackets, D forms with d. No end group written: not given here. X1 = 3‑(7-(3-acetamidophenyl)-1H-indol-3-yl)‑2‑aminopropanoic acid, CC(=O)Nc1cccc(-c2cccc3c(CC(N[*:1])C(=O)[*:2])c[nH]c23)c1; X3 = 4‑(2-(4-(2-amino-2-carboxyethyl)phenoxy)ethyl)‑4‑methylmorpholin‑4‑ium, C[N+]1(CCOc2ccc(CC(N[*:1])C(=O)[*:2])cc2)CCOCC1; Trp(7-Me) = Cc1cccc2c(C[C@H](N)C(=O)O)c[nH]c12; 3Pal = N[C@@H](Cc1cccnc1)C(=O)O; Pen = CC(C)(S)[C@H](N)C(=O)O; lipid = not defined here; Thp = NC1(C(=O)O)CCOCC1; Sar = CNCC(=O)O

T1: interleukin-23 receptor (IL-23R), Q5VWK5
T1 chain: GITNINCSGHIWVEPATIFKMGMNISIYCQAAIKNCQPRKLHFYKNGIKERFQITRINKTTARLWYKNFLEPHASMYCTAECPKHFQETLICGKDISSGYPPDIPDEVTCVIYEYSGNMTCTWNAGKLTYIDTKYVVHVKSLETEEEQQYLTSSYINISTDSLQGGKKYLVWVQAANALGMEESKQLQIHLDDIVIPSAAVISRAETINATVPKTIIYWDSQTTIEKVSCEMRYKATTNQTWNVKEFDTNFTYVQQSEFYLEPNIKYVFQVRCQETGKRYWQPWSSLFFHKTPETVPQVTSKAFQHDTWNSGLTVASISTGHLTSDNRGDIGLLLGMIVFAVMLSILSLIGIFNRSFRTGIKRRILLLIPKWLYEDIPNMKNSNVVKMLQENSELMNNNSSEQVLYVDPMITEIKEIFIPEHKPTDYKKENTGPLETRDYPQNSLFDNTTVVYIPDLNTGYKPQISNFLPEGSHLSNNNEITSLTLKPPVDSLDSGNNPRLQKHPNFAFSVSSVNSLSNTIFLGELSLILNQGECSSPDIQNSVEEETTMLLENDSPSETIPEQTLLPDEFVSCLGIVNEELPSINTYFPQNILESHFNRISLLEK


Biological target: T1, interleukin-23 receptor (IL-23R), Q5VWK5
Assay: cell-based or functional assay

Binder | PBMC pSTAT3 IC50
[Pen]NT[X1]K(Ac)[Pen][2‑amino‑3‑(4-(2-aminoethoxy)phenyl)propanoic acid][2‑amino‑3‑(6-hydroxynaphthalen-2-yl)propanoic acid][Thp]KN[3Pal][Sar] (disulfide 1-6 (inferred); ends not checked; also: K10: lipidated lysine, lipid not given here) [SEQ ID NO: 153] | < 0.1 nM
R[Pen]NT[X1]K(Ac)[Pen][2‑amino‑3‑(4-(2-aminoethoxy)phenyl)propanoic acid][2‑amino‑3‑(6-hydroxynaphthalen-2-yl)propanoic acid][Thp]EN[3Pal][Sar] (disulfide 2-7 (inferred); ends not checked) [SEQ ID NO: 151] | < 1 nM
R[Pen]NT[X1]K(Ac)[Pen][2‑amino‑3‑(4-(2-aminoethoxy)phenyl)propanoic acid][2‑amino‑3‑(6-hydroxynaphthalen-2-yl)propanoic acid][Thp]EN[3Pal][Sar]K (disulfide 2-7 (inferred); ends not checked; also: K15: lipidated lysine, lipid not given here) [SEQ ID NO: 156] | < 1 nM
R[Pen]KT[X1]K(Ac)[Pen][2‑amino‑3‑(4-(2-aminoethoxy)phenyl)propanoic acid][2‑amino‑3‑(6-hydroxynaphthalen-2-yl)propanoic acid][Thp]EN[3Pal][Sar] (disulfide 2-7 (inferred); ends not checked; also: Lys3: lipidated lysine, lipid not given here) [SEQ ID NO: 150] | < 1 nM

Results, then the binder that gave them:

PBMC pSTAT3 IC50 | Binder
> 1 nM | [Pen]NT[Trp(7-Me)]K(Ac)[Pen][2‑amino‑3‑(4-(2-aminoethoxy)phenyl)propanoic acid][2‑amino‑3‑(6-hydroxynaphthalen-2-yl)propanoic acid][Thp]K(Ac)N[3Pal][Sar]K(lipid) (disulfide 1-6 (inferred); ends not checked; also: K14: lipidated lysine, lipid not given here) [SEQ ID NO: 165]
< 0.1 nM | R[Pen]ET[Trp(7-Me)]K(Ac)[Pen][2‑amino‑3‑(4-(2-aminoethoxy)phenyl)propanoic acid][2‑amino‑3‑(6-hydroxynaphthalen-2-yl)propanoic acid][Thp]EN[3Pal][Sar]K (disulfide 2-7 (inferred); ends not checked; also: Lys15: lipidated lysine, lipid not given here) [SEQ ID NO: 148]
< 10 pM | R[Pen]NT[X1]K(Ac)[Pen][X3][2‑amino‑3‑(6-hydroxynaphthalen-2-yl)propanoic acid][Thp]EN[3Pal][Sar] (disulfide 2-7 (inferred); ends not checked) [SEQ ID NO: 161]
< 1 nM | K(lipid)[Pen]NT[Trp(7-Me)]K(Ac)[Pen][2‑amino‑3‑(4-(2-aminoethoxy)phenyl)propanoic acid][2‑amino‑3‑(6-hydroxynaphthalen-2-yl)propanoic acid][Thp]K(Ac)N[3Pal][Sar] (disulfide 2-7 (inferred); ends not checked; also: K1: lipidated lysine, lipid not given here) [SEQ ID NO: 164]
